Assay results as given in article PMC9947421.

Legend:
Assay in all cases: AP-MS
[1] = molecular target: poly(ADP-ribose) polymerase 1 (PARP1) (UniProt P09874)
[2] = molecular target: VGLL4 (UniProt Q14135); details: read off a plot
[3] = molecular target: Rap1-interacting factor 1 (RIF1) (UniProt Q5UIP0)
[4] = molecular target: transcriptional co-activator with PDZ-binding motif (TAZ) (UniProt Q9GZV5); details: read off a plot
[5] = molecular target: X-ray repair cross-complementing protein 6 (XRCC6) (UniProt P12956); details: HEK293 cells
[6] = molecular target: Yes-associated protein (YAP) (UniProt P46937); details: read off a plot
[7] = molecular target: DNA-dependent protein kinase, catalytic subunit (PRKDC/DNAPKcs) (UniProt P78527)

Chain of UniProt Q5UIP0 (Q5UIP0 whole entry): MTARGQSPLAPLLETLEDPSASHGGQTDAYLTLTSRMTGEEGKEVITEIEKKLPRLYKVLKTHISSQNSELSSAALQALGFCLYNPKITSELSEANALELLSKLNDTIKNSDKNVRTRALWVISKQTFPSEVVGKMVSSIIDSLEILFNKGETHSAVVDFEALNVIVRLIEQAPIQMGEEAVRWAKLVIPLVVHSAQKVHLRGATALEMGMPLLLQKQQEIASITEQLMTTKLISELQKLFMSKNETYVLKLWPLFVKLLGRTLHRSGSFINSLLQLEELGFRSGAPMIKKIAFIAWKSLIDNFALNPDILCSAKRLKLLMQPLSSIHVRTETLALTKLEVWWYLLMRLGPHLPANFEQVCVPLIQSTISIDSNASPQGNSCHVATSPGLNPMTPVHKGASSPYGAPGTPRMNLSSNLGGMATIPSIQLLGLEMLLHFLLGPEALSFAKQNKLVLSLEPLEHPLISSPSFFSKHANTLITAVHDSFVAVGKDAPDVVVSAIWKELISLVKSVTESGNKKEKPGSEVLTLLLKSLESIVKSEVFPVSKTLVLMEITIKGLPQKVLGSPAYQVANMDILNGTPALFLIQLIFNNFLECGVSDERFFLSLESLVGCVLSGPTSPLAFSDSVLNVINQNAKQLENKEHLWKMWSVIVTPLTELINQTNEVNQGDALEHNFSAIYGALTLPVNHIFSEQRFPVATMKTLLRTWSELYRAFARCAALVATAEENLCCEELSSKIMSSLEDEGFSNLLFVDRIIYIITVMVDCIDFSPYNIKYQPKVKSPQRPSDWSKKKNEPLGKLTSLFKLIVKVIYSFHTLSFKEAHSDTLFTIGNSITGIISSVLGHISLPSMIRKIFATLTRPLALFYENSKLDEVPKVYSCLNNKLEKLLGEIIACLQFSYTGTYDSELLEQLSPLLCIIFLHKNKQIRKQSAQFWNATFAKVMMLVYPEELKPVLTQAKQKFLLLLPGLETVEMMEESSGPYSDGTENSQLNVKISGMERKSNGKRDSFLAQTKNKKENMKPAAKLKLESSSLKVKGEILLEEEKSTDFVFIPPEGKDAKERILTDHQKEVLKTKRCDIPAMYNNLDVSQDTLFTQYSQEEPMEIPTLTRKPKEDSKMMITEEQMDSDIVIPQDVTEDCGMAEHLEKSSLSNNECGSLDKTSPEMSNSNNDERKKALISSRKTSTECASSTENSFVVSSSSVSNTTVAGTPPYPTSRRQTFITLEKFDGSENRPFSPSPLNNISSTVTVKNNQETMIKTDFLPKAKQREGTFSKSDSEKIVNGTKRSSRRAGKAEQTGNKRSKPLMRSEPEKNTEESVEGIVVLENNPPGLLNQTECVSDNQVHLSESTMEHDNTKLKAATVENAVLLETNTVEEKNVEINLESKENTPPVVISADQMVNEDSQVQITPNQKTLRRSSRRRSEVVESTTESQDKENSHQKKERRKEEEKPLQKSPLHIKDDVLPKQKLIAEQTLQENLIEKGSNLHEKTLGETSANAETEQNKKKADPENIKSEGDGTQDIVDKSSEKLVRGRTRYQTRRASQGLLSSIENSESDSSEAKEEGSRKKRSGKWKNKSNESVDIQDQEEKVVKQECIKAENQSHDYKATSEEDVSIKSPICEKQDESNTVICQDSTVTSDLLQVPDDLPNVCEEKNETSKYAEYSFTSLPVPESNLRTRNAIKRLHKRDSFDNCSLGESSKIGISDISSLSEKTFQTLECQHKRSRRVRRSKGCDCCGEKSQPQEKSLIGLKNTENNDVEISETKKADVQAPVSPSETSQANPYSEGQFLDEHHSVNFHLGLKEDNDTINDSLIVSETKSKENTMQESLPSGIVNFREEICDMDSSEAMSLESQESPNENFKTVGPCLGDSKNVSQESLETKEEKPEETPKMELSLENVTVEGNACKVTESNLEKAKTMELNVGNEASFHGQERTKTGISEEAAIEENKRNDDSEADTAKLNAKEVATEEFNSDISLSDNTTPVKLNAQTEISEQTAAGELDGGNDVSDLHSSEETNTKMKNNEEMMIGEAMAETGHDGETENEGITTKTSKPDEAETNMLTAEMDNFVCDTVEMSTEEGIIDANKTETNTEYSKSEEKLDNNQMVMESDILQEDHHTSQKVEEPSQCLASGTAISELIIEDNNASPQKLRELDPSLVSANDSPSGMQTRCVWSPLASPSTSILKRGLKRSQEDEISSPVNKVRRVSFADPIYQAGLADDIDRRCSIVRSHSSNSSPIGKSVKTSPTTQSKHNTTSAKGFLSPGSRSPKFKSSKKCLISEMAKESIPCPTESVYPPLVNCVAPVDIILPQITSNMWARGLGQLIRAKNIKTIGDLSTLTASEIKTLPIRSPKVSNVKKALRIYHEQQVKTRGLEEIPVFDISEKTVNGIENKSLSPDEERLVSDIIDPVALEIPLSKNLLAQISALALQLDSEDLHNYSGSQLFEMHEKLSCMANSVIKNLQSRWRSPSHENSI
Chain of UniProt P09874 (P09874 whole entry): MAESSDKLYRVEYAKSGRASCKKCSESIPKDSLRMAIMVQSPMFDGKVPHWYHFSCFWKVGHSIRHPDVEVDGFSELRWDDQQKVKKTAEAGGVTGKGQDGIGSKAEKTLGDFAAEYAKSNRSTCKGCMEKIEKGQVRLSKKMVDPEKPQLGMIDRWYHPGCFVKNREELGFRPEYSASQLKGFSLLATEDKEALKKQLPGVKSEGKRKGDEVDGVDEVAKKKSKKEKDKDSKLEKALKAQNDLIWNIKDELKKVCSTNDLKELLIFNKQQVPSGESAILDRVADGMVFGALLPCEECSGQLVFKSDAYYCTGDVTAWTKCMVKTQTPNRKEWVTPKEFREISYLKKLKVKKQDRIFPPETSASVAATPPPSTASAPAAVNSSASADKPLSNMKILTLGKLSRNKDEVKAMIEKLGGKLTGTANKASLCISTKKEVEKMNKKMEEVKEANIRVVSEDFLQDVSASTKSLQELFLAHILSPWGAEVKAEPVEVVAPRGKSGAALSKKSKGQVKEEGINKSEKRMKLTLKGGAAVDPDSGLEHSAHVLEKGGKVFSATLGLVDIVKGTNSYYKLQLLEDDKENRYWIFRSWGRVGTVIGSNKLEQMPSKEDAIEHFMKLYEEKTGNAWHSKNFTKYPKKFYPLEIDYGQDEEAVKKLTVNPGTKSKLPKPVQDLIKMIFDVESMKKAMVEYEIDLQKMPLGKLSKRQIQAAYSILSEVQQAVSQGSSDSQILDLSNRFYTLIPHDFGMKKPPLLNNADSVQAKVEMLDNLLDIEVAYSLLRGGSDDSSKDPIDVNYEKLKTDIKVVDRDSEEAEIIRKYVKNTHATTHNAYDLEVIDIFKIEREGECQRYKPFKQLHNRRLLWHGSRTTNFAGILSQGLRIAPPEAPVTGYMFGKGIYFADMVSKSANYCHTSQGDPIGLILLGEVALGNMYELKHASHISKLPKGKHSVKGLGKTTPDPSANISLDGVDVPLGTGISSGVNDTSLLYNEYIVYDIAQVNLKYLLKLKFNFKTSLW
Chain of UniProt Q9GZV5 (Q9GZV5 whole entry): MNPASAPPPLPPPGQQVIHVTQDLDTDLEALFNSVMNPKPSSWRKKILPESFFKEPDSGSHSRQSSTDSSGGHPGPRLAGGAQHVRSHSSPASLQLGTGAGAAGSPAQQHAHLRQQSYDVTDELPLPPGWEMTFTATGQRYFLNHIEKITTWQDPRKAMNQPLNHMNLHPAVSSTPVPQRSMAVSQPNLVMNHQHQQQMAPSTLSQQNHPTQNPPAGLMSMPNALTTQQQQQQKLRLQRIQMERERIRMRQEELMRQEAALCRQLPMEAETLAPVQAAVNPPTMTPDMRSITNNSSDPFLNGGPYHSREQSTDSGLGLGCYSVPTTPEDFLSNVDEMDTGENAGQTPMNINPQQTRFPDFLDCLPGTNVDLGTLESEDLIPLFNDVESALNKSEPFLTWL
Chain of UniProt P12956 (P12956 whole entry): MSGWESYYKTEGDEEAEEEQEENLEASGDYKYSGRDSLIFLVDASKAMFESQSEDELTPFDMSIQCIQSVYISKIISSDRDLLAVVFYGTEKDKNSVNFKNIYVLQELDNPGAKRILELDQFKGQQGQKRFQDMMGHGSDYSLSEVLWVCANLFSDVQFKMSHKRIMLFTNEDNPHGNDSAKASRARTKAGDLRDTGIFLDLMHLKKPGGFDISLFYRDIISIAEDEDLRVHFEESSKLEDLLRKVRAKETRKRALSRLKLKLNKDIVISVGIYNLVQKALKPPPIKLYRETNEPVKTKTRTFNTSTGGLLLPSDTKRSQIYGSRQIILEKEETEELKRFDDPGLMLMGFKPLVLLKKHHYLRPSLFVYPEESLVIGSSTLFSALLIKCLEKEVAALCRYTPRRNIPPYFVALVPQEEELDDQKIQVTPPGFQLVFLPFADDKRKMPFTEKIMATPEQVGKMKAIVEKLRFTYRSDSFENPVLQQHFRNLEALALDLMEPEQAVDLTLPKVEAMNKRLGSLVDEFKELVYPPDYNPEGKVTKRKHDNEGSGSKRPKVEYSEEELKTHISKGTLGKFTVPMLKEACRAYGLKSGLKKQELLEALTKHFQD
Chain of UniProt P46937 (P46937 whole entry): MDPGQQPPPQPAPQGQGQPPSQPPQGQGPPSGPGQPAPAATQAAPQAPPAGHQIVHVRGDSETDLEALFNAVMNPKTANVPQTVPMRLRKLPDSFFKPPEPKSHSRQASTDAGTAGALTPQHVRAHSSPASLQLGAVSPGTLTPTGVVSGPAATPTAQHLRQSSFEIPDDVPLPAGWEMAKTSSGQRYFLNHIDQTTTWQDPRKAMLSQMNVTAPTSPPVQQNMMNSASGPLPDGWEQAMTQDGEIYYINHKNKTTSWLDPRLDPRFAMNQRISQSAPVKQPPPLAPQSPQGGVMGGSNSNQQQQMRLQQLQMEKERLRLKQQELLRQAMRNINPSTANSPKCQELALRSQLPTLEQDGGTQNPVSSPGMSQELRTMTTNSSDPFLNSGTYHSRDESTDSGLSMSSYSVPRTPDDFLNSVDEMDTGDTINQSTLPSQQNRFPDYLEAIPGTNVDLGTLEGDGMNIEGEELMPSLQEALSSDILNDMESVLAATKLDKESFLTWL

WT TEAD3-Myc/Flag (from UniProt Q99594) … -> … (R>N; K>N; R>N; K>N; K>N; V>N; R>N; residue numbers not printed)
response ([1]; Detroit 562 cells, replicate TEAD3 mut_1 (parent: TEAD3_WT_1), parent: 90): 6 PSMs
response ([1]; Detroit 562 cells, replicate TEAD3 mut_2 (parent: TEAD3_WT_2), parent: 76): 5 PSMs
response ([1]; Detroit 562 cells, replicate TEAD3 mut_3 (parent: TEAD3_WT_3), parent: 87): 8 PSMs
response ([1]; HEK293 cells, replicate TEAD3 mut_1 (parent: TEAD3_WT_1), parent: 380): 1 PSMs
response ([1]; HEK293 cells, replicate TEAD3 mut_2 (parent: TEAD3_WT_2), parent: 624): 3 PSMs
response ([1]; HEK293 cells, replicate TEAD3 mut_3 (parent: TEAD3_WT_3), parent: 950): 4 PSMs
response (average sum PSMs) ([2]; Detroit 562 cells, parent: est. 90): 75
response (average sum PSMs) ([2]; HEK293 cells, parent: est. 150): 190
response ([3]; Detroit 562 cells, replicate TEAD3 mut_1 (parent: TEAD3_WT_1), parent: 302): 118 PSMs
response ([3]; Detroit 562 cells, replicate TEAD3 mut_2 (parent: TEAD3_WT_2), parent: 297): 45 PSMs
response ([3]; Detroit 562 cells, replicate TEAD3 mut_3 (parent: TEAD3_WT_3), parent: 331): 26 PSMs
response ([3]; HEK293 cells, replicate TEAD3 mut_1): 2 PSMs
response ([3]; HEK293 cells, replicate TEAD3 mut_2 (parent: TEAD3_WT_2), parent: 3): 1 PSMs
response (average sum PSMs) ([4]; Detroit 562 cells, parent: est. 170): 250
response (average sum PSMs) ([4]; HEK293 cells, parent: est. 23): 22
response ([5]; replicate TEAD3 mut_1 (parent: TEAD3_WT_1), parent: 56): 1 PSMs
response ([5]; replicate TEAD3 mut_3 (parent: TEAD3_WT_3), parent: 92): 1 PSMs
response (average sum PSMs) ([6]; Detroit 562 cells, parent: est. 620): 960
response (average sum PSMs) ([6]; HEK293 cells, parent: est. 200): 230
response ([7]; Detroit 562 cells, replicate TEAD3 mut_1 (parent: TEAD3_WT_1), parent: 232): 132 PSMs
response ([7]; Detroit 562 cells, replicate TEAD3 mut_2 (parent: TEAD3_WT_2), parent: 898): 496 PSMs
response ([7]; Detroit 562 cells, replicate TEAD3 mut_3 (parent: TEAD3_WT_3), parent: 658): 396 PSMs
response ([7]; HEK293 cells, replicate TEAD3 mut_1 (parent: TEAD3_WT_1), parent: 258): 167 PSMs
response ([7]; HEK293 cells, replicate TEAD3 mut_2 (parent: TEAD3_WT_2), parent: 223): 195 PSMs
response ([7]; HEK293 cells, replicate TEAD3 mut_3 (parent: TEAD3_WT_3), parent: 216): 230 PSMs
